Our source for the koff and Kd values is publication PMC5161705.

By koff is commonly meant a measure of how fast the partners let go of each other. For orientation: pKd means the Kd on a negative log10 scale, so that one unit is a factor of ten.

In test [1] the target is biotin-labeled MBP (E. coli) [MBP: P0AEX9]. The experiment in a line: BLI. For orientation: BLI is a label-free optical method that tracks binding on a fibre tip over time.
Test [2] deals with MBP^V8G/Y283D (E. coli) [MBP: P0AEX9]. The experiment in a line: ITC. For orientation: In ITC the heat of successive injections is recorded.

pKd: −log10 of the molar value.

SecB, sequence (P0AG86 whole entry): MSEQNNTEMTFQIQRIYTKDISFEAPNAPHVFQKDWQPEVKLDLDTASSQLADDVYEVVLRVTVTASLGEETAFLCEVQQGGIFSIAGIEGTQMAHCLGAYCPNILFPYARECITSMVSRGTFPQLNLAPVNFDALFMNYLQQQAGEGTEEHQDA
Trigger Factor (TF), sequence (P0A850 whole entry): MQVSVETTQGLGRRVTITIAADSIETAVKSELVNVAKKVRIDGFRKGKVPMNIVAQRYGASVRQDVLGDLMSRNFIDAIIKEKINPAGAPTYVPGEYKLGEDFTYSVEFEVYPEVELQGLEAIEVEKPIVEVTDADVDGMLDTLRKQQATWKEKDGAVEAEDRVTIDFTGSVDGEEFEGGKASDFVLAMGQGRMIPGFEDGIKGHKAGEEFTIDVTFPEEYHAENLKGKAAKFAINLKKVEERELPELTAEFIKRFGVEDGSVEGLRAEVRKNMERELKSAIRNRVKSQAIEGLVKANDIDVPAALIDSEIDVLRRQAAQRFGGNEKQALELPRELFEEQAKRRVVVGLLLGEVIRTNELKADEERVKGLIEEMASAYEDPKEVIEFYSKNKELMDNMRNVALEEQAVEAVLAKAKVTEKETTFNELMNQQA

In test [1], “Trigger Factor (TF) (from UniProt P0A850 1-432) (natural protein)” registered an off-rate constant (koff) of 0.05 s⁻¹.
Regarding “SecB (from UniProt P0AG86 1-155) (natural protein)”, the negative logarithm of the Kd (pKd) in test [2] was 1.30. Also, the koff in test [1] came to 0.01 s⁻¹.
